Assay [1] has as its target Nucleolysin TIA-1 (endogenous mouse TIA1) (mouse) (UniProt P52912). Description: TIA1 IP-MS, tau KO 2 cortex.
Assay [2] shares this target. Description: TIA1 IP-MS, WT3 cortex.
For assay [3] the target is unchanged. Description: TIA1 IP-MS, tau KO 1 cortex.
For assay [4] the target is unchanged. The experiment in a line: TIA1 IP-MS, WT1 cortex.
For assay [5] the target is unchanged. Description: TIA1 IP-MS, tau KO 3 cortex.
For assay [6] the target is unchanged. Description: TIA1 IP-MS, WT2 cortex.

Chain of UniProt P52912 (P52912 whole entry): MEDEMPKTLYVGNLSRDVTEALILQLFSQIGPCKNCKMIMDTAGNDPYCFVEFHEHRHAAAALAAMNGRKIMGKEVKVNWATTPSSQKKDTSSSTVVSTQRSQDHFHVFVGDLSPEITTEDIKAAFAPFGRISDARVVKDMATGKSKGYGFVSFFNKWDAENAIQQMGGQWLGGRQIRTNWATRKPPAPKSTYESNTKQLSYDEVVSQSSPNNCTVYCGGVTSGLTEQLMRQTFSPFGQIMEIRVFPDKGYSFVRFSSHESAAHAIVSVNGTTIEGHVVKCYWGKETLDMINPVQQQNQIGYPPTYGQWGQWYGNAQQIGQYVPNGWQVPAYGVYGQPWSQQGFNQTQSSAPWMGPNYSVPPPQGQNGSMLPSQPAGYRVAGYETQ

With “Cluster of Ras-related protein Rab-5C (from UniProt P35278 1-216)”, the total ion current (normalized to TIA1 = 1000) is 213 in assay [1]; 337 in assay [2]; 0 in assay [3]; 0 in assay [4]; 0 in assay [5]; 210 in assay [6].
Turning to Coronin-1A (from UniProt O89053 2-461), the total ion current (normalized to TIA1 = 1000) is 31 in assay [1]; 0 in assay [2]; 0 in assay [3]; 0 in assay [4]; 0 in assay [5]; 74.2 in assay [6].
“Cytochrome b-c1 complex subunit 1, mitochondrial (from UniProt Q9CZ13 35-480)”: the total ion current (normalized to TIA1 = 1000) stood at 1030 in assay [1]; 2460 in assay [2]; 0 in assay [3]; 0 in assay [4]; 0 in assay [5]; 1320 in assay [6].
In the case of “Dihydrolipoyl dehydrogenase, mitochondrial (from UniProt O08749 36-509)”, the total ion current (normalized to TIA1 = 1000) in assay [1] was 31.3; in assay [2], 0; in assay [3], 0; in assay [4], 0; in assay [5], 0; in assay [6] it was 107.
Consider “Dihydrolipoyllysine-residue acetyltransferase component of pyruvate dehydrogenase complex, mitochondrial (from UniProt Q8BMF4 86-642)”, for which the total ion current (normalized to TIA1 = 1000) is 130 in assay [1]; 0 in assay [2]; 0 in assay [3]; 0 in assay [4]; 0 in assay [5]; 353 in assay [6].
“Dihydropyrimidinase-related protein 3 (from UniProt Q62188 1-570)”: the total ion current (normalized to TIA1 = 1000) in assay [1] amounted to 96; in assay [2], 14.7; in assay [3] it was 0; in assay [4] it was 0; in assay [5], 0; in assay [6] it was 192.
On to “Dual specificity mitogen-activated protein kinase kinase 1 (from UniProt P31938 1-393)”, for which the total ion current (normalized to TIA1 = 1000) stood at 67.8 in assay [1]; 83.7 in assay [2]; 0 in assay [3]; 0 in assay [4]; 0 in assay [5]; 108 in assay [6].
As to “Eukaryotic initiation factor 4A-I (from UniProt P60843 2-406)”, the total ion current (normalized to TIA1 = 1000) in assay [1] came out at 121; in assay [2], 76.1; in assay [3], 0; in assay [4], 0; in assay [5], 0; in assay [6], 150.
For “Fructose-bisphosphate aldolase C (from UniProt P05063 2-363)”, the total ion current (normalized to TIA1 = 1000) in assay [1] came out at 43.2; in assay [2], 41.6; in assay [3] it was 0; in assay [4] it was 0; in assay [5], 0; in assay [6], 69.5.

For the origin of these results see patent US20190142860A1, “NUCLEIC ACID BASED TIA-1 INHIBITORS” (Aquinnah Pharmaceuticals, Inc., priority 2015, published 2019).
